Measurements reported in PMC7949036, “Zinc transporter mutations linked to acrodermatitis enteropathica disrupt function and cause mistrafficking” (The Journal of Biological Chemistry, 2021).

Columns and labels:
[1] = biological target: the molecule itself; assay: SEC; Superdex 200 10/300GL, 10 mM HEPES pH 7.3, 100 mM NaCl; apparent molecular weight estimated from protein standards; native purified protein
[2] = cell-based 65Zn uptake, HEK293T; settings: glycan lost; control: wild type
[3] = confocal immunofluorescence, FITC anti-HA, nonpermeabilized cells; settings: glycan lost; control: wild type

B1: extracellular domain of ZIP4 from Pteropus alecto (black fruit bat), wild type (domain or fragment, UniProt L5KLU7 36-322, looked up)
chain: SGQGALDRVALGGLLNTLAARVHCTSGPCGKCLSVDDLLALGRPEEPGHLARLSAAAALYLSDPEGTCEDIRAGRWASRADHLLALLEGPKALAPGLSRLLQRIQAQTTGQPSAGEACVDPPQLLREAGVAGAPGSPGPVLATLLEHVGRGSCFHTLPTPQYFVDFVFQQSHGNTPNISVAELAALMQRLGVGGVTETHSDHHHQEKRVNRQGPTPLTAPNSSSDTWDTVCLSARDVMAVYGLSEQTGVTPEAWAQLSPALLQQQLSGACSPQPSHPAQNQLSQAEK
notes: ZIP4 (zinc transporter, SLC39A family) of Pteropus alecto, extracellular domain, residues 36-322 of ELK11751; His6 tag removed by thrombin; also called pZIP4-ECD; wild-type pZIP4-ECD; source: E. coli Origami B(DE3) pLysS, purified (Ni-NTA, Mono-Q, SEC); not shown: His6, N-terminal, cleaved
- stoichiometry N [1]: 2

B2: pZIP4-ECD A91T variant (domain or fragment, Pteropus alecto, UniProt L5KLU7 36-322, looked up)
chain: SGQGALDRVALGGLLNTLAARVHCTSGPCGKCLSVDDLLALGRPEEPGHLARLSATAALYLSDPEGTCEDIRAGRWASRADHLLALLEGPKALAPGLSRLLQRIQAQTTGQPSAGEACVDPPQLLREAGVAGAPGSPGPVLATLLEHVGRGSCFHTLPTPQYFVDFVFQQSHGNTPNISVAELAALMQRLGVGGVTETHSDHHHQEKRVNRQGPTPLTAPNSSSDTWDTVCLSARDVMAVYGLSEQTGVTPEAWAQLSPALLQQQLSGACSPQPSHPAQNQLSQAEK
notes: ZIP4 of Pteropus alecto, extracellular domain, residues 36-322 of ELK11751, with A91T (equivalent to A99T of human ZIP4); source: E. coli Origami B(DE3) pLysS, purified (Ni-NTA, Mono-Q, SEC); not shown: His6, N-terminal, cleaved
- binding result [1]: binds

B3: pZIP4-ECD R87C variant (domain or fragment, Pteropus alecto, UniProt L5KLU7 36-322, looked up)
chain: SGQGALDRVALGGLLNTLAARVHCTSGPCGKCLSVDDLLALGRPEEPGHLACLSAAAALYLSDPEGTCEDIRAGRWASRADHLLALLEGPKALAPGLSRLLQRIQAQTTGQPSAGEACVDPPQLLREAGVAGAPGSPGPVLATLLEHVGRGSCFHTLPTPQYFVDFVFQQSHGNTPNISVAELAALMQRLGVGGVTETHSDHHHQEKRVNRQGPTPLTAPNSSSDTWDTVCLSARDVMAVYGLSEQTGVTPEAWAQLSPALLQQQLSGACSPQPSHPAQNQLSQAEK
notes: ZIP4 of Pteropus alecto, extracellular domain, residues 36-322 of ELK11751, with R87C (equivalent to R95C of human ZIP4); source: E. coli Origami B(DE3) pLysS, purified (Ni-NTA, Mono-Q, SEC); not shown: His6, N-terminal, cleaved
- binding result [1]: binds

B4: pZIP4-ECD C64R variant (domain or fragment, Pteropus alecto, UniProt L5KLU7 36-322, looked up)
chain: SGQGALDRVALGGLLNTLAARVHCTSGPRGKCLSVDDLLALGRPEEPGHLARLSAAAALYLSDPEGTCEDIRAGRWASRADHLLALLEGPKALAPGLSRLLQRIQAQTTGQPSAGEACVDPPQLLREAGVAGAPGSPGPVLATLLEHVGRGSCFHTLPTPQYFVDFVFQQSHGNTPNISVAELAALMQRLGVGGVTETHSDHHHQEKRVNRQGPTPLTAPNSSSDTWDTVCLSARDVMAVYGLSEQTGVTPEAWAQLSPALLQQQLSGACSPQPSHPAQNQLSQAEK
notes: ZIP4 of Pteropus alecto, extracellular domain, residues 36-322 of ELK11751, with C64R (equivalent to C62R of human ZIP4); source: E. coli Origami B(DE3) pLysS, purified (Ni-NTA, Mono-Q, SEC); not shown: His6, N-terminal, cleaved
- binding result [1]: binds

B5: pZIP4-ECD P193L variant (domain or fragment, Pteropus alecto, UniProt L5KLU7 36-322, looked up)
chain: SGQGALDRVALGGLLNTLAARVHCTSGPCGKCLSVDDLLALGRPEEPGHLARLSAAAALYLSDPEGTCEDIRAGRWASRADHLLALLEGPKALAPGLSRLLQRIQAQTTGQPSAGEACVDPPQLLREAGVAGAPGSPGPVLATLLEHVGRGSCFHTLLTPQYFVDFVFQQSHGNTPNISVAELAALMQRLGVGGVTETHSDHHHQEKRVNRQGPTPLTAPNSSSDTWDTVCLSARDVMAVYGLSEQTGVTPEAWAQLSPALLQQQLSGACSPQPSHPAQNQLSQAEK
notes: ZIP4 of Pteropus alecto, extracellular domain, residues 36-322 of ELK11751, with P193L (equivalent to P200L of human ZIP4); source: E. coli Origami B(DE3) pLysS, purified (Ni-NTA, Mono-Q, SEC); not shown: His6, N-terminal, cleaved
- binding result [1]: binds

B6: hZIP4 (human ZIP4): N261Q (protein)
parent chain: MASLVSLELGLLLAVLVVTATASPPAGLLSLLTSGQGALDQEALGGLLNTLADRVHCANGPCGKCLSVEDALGLGEPEGSGLPPGPVLEARYVARLSAAAVLYLSNPEGTCEDARAGLWASHADHLLALLESPKALTPGLSWLLQRMQARAAGQTPKMACVDIPQLLEEAVGAGAPGSAGGVLAALLDHVRSGSCFHALPSPQYFVDFVFQQHSSEVPMTLAELSALMQRLGVGREAHSDHSHRHRGASSRDPVPLISSSNSSSVWDTVCLSARDVMAAYGLSEQAGVTPEAWAQLSPALLQQQLSGACTSQSRPPVQDQLSQSERYLYGSLATLLICLCAVFGLLLLTCTGCRGVTHYILQTFLSLAVGAVTGDAVLHLTPKVLGLHTHSEEGLSPQPTWRLLAMLAGLYAFFLFENLFNLLLPRDPEDLEDGPCGHSSHSHGGHSHGVSLQLAPSELRQPKPPHEGSRADLVAEESPELLNPEPRRLSPELRLLPYMITLGDAVHNFADGLAVGAAFASSWKTGLATSLAVFCHELPHELGDFAALLHAGLSVRQALLLNLASALTAFAGLYVALAVGVSEESEAWILAVATGLFLYVALCDMLPAMLKVRDPRPWLLFLLHNVGLLGGWTVLLLLSLYEDDITF
- other: transport activity [2]: decreases
- localisation_or_trafficking [3]: no change
